Reference: publication PMC11110689

Target: factor inhibiting HIF (FIH), V5-tagged (FIH-V5) (UniProt Q9NWT6)
Assay: immunoblot of a denaturation-resistant (SDS-PAGE) complex; cells co-transfected, 24 h at the indicated oxygen levels (18.5–1% O2), blots quantified, oxygen sensitivity calculated

Chain of UniProt Q9NWT6 (Q9NWT6 whole entry): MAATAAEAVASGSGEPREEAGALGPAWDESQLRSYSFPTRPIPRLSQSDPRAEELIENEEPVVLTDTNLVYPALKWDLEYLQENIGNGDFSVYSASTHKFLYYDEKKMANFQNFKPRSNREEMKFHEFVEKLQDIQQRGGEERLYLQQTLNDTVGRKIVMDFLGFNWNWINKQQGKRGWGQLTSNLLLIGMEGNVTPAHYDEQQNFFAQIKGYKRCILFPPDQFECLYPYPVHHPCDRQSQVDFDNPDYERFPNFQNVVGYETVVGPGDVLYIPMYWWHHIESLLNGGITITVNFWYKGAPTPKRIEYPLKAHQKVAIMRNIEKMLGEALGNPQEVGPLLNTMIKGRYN

- EC50 of the oxygen level for oxomer formation: 7.6 % O2
Substance: NF-κB inhibitor β (IκBβ), FLAG-tagged (IκBβ-FLAG) (from UniProt Q15653 1-356) (natural protein)
